Test system: C[C@@H]1O[C@H](OP(=O)(O)OP(=O)(O)OC[C@H]2O[C@@H](n3cnc4c(=O)[nH]c(N)nc43)[C@H](O)[C@@H]2O)[C@@H](O)[C@H](O)[C@@H]1O
Test: purified protein
Conditions: apparent, acceptor LacNAc 3 mM, Tris-HCl pH 7.5, 37 °C

With Hp3FT (Helicobacter pylori) as the substance, how does the Km read?
Its Km is 6.4480 ± 1.1360 mM.

What about the kcat of the same substance?
The kcat was 0.617 ± 0.0417 s⁻¹.

And the kcat/Km?
Its kcat/Km is 96 M⁻¹ s⁻¹.

— article PMC6613818
